This is an account of results in patent US20260193365A1 (GRANITE BIO, published 2026).

For assay [1], the target named is T1, human CCR2 (human, UniProt O18793 1-360 (rhesus entry)).
T1 construct: On primary human monocytes/PBMC and on human-CCR2 transfected CHO cells; also called C-C Motif Chemokine Receptor 2; CD192
T1 chain: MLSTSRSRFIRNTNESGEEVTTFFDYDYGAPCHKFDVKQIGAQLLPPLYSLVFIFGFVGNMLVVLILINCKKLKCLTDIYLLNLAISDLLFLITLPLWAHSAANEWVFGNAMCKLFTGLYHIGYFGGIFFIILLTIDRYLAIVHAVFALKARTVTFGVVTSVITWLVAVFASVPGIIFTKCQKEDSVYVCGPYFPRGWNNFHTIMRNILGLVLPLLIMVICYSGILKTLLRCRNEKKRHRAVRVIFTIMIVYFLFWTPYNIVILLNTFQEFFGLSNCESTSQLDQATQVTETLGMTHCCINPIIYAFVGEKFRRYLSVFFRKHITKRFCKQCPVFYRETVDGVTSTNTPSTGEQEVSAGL
Put plainly: cell binding, human monocytes.

The target in assay [2] is T2, Marmoset monkey (Callithrix jacchus) CCR2 (Marmoset monkey (Callithrix jacchus), UniProt O18793 1-360).
T2 construct: On primary marmoset monocytes (marmoset blood/PBMC); they may hold print errors; also called marmoset CCR2; marmoset CCR2b
T2 chain: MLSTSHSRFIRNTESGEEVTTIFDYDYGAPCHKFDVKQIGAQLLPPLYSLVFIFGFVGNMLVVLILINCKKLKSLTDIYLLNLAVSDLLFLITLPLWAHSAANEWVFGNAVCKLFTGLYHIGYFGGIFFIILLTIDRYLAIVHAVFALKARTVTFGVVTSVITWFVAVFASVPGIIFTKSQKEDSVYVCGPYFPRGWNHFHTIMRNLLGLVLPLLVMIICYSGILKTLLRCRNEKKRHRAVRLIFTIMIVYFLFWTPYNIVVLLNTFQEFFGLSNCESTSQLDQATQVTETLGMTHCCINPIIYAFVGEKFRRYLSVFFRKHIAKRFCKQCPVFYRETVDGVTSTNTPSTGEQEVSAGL
In words: cell binding, primary marmoset monocytes.

Assay [3] deals with T2, Marmoset monkey (Callithrix jacchus) …. Put plainly: cell binding, primary marmoset monocytes (marmoset blood).
Assay [4] has as its target T1, human CCR2. Put plainly: cell binding, human PBMCs.
The target in assay [5] is T1, human CCR2. In words: cell binding, primary human monocytes.

B1: DOC2 chim. (antibody, human IgG1, kappa, V domains shown)
VH: EVQLVESGGGLVKPGGSLKLSCVASGFTLSNYAMSWVRQSPEKRLEWVAEVSSSGIYIYYSDTVTGRFSISRDNAKNTLYLEMSSLRSEDTAIYYCARDRYAYAMDYWGHGTSVIVSS
VL: DIVMTQSPSSLAISVGQRVTLSCKSSQSLLNSYNQKNSLAWYQQKPGQSPKLLVYFASTRESGVPDRFIGSGSGTYFTLTITSVQAGDLADYFCQQHYSNPRTFGGGTRLEIKR
With B1, the binding result with human CCR2 [1] is recorded as “binds”.

B2: DOC2-ChXRKA (antibody, human IgG1, kappa, V domains shown)
VH: EVQLVESGGGLVKPGGSLKLSCVASGFTLSNYAMSWVRQSPEKRLEWVAEVSSSGIYIYYSDTVTGRFSISRDNAKNTLYLEMSSLRSEDTAIYYCARDRYAYAMDYWGHGTSVIVSS
VL: DIVMTQSPDSLAVSLGERATINCKSSQSLLNSYNQKNSLAWYQQKPGQPPKLLIYFASTRESGVPDRFSGSGSGTDFTLTISSLQAEDVAVYYCQQHYSNPRTFGGGTKLEIKR
As for B2, the binding result in assay [2] is on record as “no binding”.

B3: DOC3 chim. (antibody, human IgG1, kappa, V domains shown)
VH: QVQLKESGPGLVAPSQSLSITCTVSGFSLTRYDLSWIRQPPGKGLQWLGVIWTGGGTNYNSAFMSRLSIRKDNSKSQVFLKMNSLQTDDTAIYYCVRENYYNRRGYFDVWGAGTTVTVSS
VL: QIVLTQSPAIMSTSPGEKVTITCSASSSVSYMHWFQQKPGTSPKLWIYLTSNLASGVPARFSGSGSGTSYSLTINRMEAEDAATYYCQQRSGSPPTFGTGTKLELRR
On to B3, for which, in the assay with human CCR2 [1], the binding result is recorded as “binds”.

B4: DOC3-RHLXRKA (antibody, human IgG1, kappa, V domains shown)
VH: QVQLQESDPGLVKPSETLSLTCTVSGFSISRYDLSWIRQPPGKGLEWIGVIWTGGGTNYNSAFMSRLTISKDTSKNQVSLKLSSVTAADTAVYYCARENYYNRRGYFDVWGQGTMVTVSS
VL: EIVLTQSPATLSLSPGERATLSCSASSSVSYMHWFQQKPGQAPRLLIYLTSNLASGIPARFSGSGSGTDFTLTISSLEPEDFAVYYCQQRSGSPPTFGPGTKLDIKR
As to B4, the binding result was “no binding” in assay [3] and “binds” with human CCR2 [4].

B5: DOC3-RH09XRKA (antibody, human IgG1, kappa, V domains shown)
VH: EVQLVESGGGLVQPGGSLRLSCAVSGFSLTRYDLSWVRQAPGKGLEWLGVIWTGGGTNYNSAFMSRFSISKDNSKNTVFLQMNSLRAEDTAVYYCARENYYNRRGYFDVWGQGTTVTVSS
VL: EIVLTQSPATLSLSPGERATLSCSASSSVSYMHWFQQKPGQAPRLLIYLTSNLASGIPARFSGSGSGTDFTLTISSLEPEDFAVYYCQQRSGSPPTFGPGTKLDIKR
Turning to B5, the binding result is “no binding” in assay [2] and “binds” with human CCR2 [5].

B6: DOC3-RH03XRKA (antibody, human IgG1, kappa, V domains shown)
VH: EVQLVESGGGLVQPGGSLRLSCAVSGFSLTRYDLSWVRQAPGKGLEWLGVIWTGGGTNYNSAFMSRLTISRDNSKNTLYLQMNSLRAEDTAVYYCVRENYYNRRGYFDVWGQGTTVTVSS
VL: EIVLTQSPATLSLSPGERATLSCSASSSVSYMHWFQQKPGQAPRLLIYLTSNLASGIPARFSGSGSGTDFTLTISSLEPEDFAVYYCQQRSGSPPTFGPGTKLDIKR
Take B6: in assay [3], the binding result is “no binding”.

B7: DOC3-RH09XRKC (antibody, human IgG1, kappa, V domains shown)
VH: EVQLVESGGGLVQPGGSLRLSCAVSGFSLTRYDLSWVRQAPGKGLEWLGVIWTGGGTNYNSAFMSRFSISKDNSKNTVFLQMNSLRAEDTAVYYCARENYYNRRGYFDVWGQGTTVTVSS
VL: QIVLTQSPATLSLSPGERATLSCSASSSVSYMHWFQQKPGQAPRLLIYLTSNLASGVPARFSGSGSGTDFTLTISSLEPEDFAVYYCQQRSGSPPTFGPGTKLDIKR
Regarding B7, the binding result in assay [2] was “no binding”; with human CCR2 [5], “binds”.

B8: DOC2-RHBXRKB (antibody, human IgG1, kappa, V domains shown)
VH: EVQLVESGGGVVQPGRSLRLSCAASGFTLSNYAMSWVRQAPGKGLEWVAEVSSSGIYIYYSDTVTGRFSISRDNSKNTLYLQMNSLRAEDTAVYYCARDRYAYAMDYWGQGTLVIVSS
VL: DIVMTQSPDSLAVSLGERATINCKSSQSLLNSYNQKNSLAWYQQKPGQPPKLLVYFASTRESGVPDRFSGSGSGTDFTLTISSLQAEDVAVYFCQQHYSNPRTFGGGTKLEIKR
notes: The number agrees with the antibody's name and was used
Consider B8, for which the binding result in assay [2] is on record as “no binding”; with human CCR2 [5] it was “binds”.

B9: DOC2-RHAXRKB (antibody, human IgG1, kappa, V domains shown)
VH: EVQLVESGGGVVQPGRSLRLSCAASGFTLSNYAMSWVRQAPGKGLEWVAEVSSSGIYIYYSDTVTGRFTISRDNSKNTLYLQMNSLRAEDTAVYYCARDRYAYAMDYWGQGTLVTVSS
VL: DIVMTQSPDSLAVSLGERATINCKSSQSLLNSYNQKNSLAWYQQKPGQPPKLLVYFASTRESGVPDRFSGSGSGTDFTLTISSLQAEDVAVYFCQQHYSNPRTFGGGTKLEIKR
B9: the binding result in assay [2] is given as “no binding”; with human CCR2 [5], “binds”.

B10: DOC2-RHAXRKA (antibody, human IgG1, kappa, V domains shown)
VH: EVQLVESGGGVVQPGRSLRLSCAASGFTLSNYAMSWVRQAPGKGLEWVAEVSSSGIYIYYSDTVTGRFTISRDNSKNTLYLQMNSLRAEDTAVYYCARDRYAYAMDYWGQGTLVTVSS
VL: DIVMTQSPDSLAVSLGERATINCKSSQSLLNSYNQKNSLAWYQQKPGQPPKLLIYFASTRESGVPDRFSGSGSGTDFTLTISSLQAEDVAVYYCQQHYSNPRTFGGGTKLEIKR
notes: also called DOC2-reshaped
With B10, the binding result with human CCR2 [5] is reported as “binds”.

B11: DOC2-RHBXRKC (antibody, human IgG1, kappa, V domains shown)
VH: EVQLVESGGGVVQPGRSLRLSCAASGFTLSNYAMSWVRQAPGKGLEWVAEVSSSGIYIYYSDTVTGRFSISRDNSKNTLYLQMNSLRAEDTAVYYCARDRYAYAMDYWGQGTLVIVSS
VL: DIVMTQSPDSLAVSLGERATINCKSSQSLLNSYNQKNSLAWYQQKPGQPPKLLVYFASTRESGVPDRFIGSGSGTYFTLTISSLQAEDVAVYFCQQHYSNPRTFGGGTKLEIKR
B11: the binding result is given as “no binding” in assay [2] and “binds” with human CCR2 [5].

B12: DOC2-RHBXRKA (antibody, human IgG1, kappa, V domains shown)
VH: EVQLVESGGGVVQPGRSLRLSCAASGFTLSNYAMSWVRQAPGKGLEWVAEVSSSGIYIYYSDTVTGRFSISRDNSKNTLYLQMNSLRAEDTAVYYCARDRYAYAMDYWGQGTLVIVSS
VL: DIVMTQSPDSLAVSLGERATINCKSSQSLLNSYNQKNSLAWYQQKPGQPPKLLIYFASTRESGVPDRFSGSGSGTDFTLTISSLQAEDVAVYYCQQHYSNPRTFGGGTKLEIKR
Consider B12, for which the binding result in assay [2] is reported as “no binding”; in the assay with human CCR2 [5] it was “binds”.
